Laboratory results published in the supplement of paper PMC9170038.

Legend:
[1] = system: K4 kissing-loop RNA reporter; experiment: apparent KD of K4 kissing-loop reporter; higher = weaker reporter binding; details: Eterna round: R107;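 further: bound reporter read as fluorescence of individual clusters on recovered sequencing chips by microscopy, with normalized cluster intensities fitted with a binding model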
Method: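 RNA-MaP round R107: designed RNA switches with theophylline, tryptophan, arginine or FMN aptamers are transcribed on-chip within common flanks. They are titrated with a labelled K4 kissing-loop RNA reporter in RNA-MaP buffer (100 mM Tris pH 7.5, 80 mM KCl, 4 mM MgCl2), without ligand or with the indicated ligand. Median apparent KD per design.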

MS2 coat protein = experiment: apparent KD of MS2 coat protein; designed switch direction (-1 OFF switch, 1 ON switch): -1; higher = weaker reporter binding
Procedure, shortened: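 Stalled E. coli RNA polymerase transcribed designed RNA switches on Illumina chips, which were then titrated with SNAP-549-labelled MS2 coat protein, doubling from 0.7 or 1.5 nM to 3 µM. Steps lasted from 0.8–1.5 h at the lowest concentration to 10–20 min at the highest. The apparent KD is each design's median over clusters of curve-fitted normalised fluorescence.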

[2] = input ligand: theophylline 20 uM
[3] = input ligand: tryptophan 2.4 mM

Sequence	apparent KD of K4 kissing-loop reporter ([1]; input ligand: FMN 200 uM) [nM]	apparent KD of K4 kissing-loop reporter ([1]; input ligand: arginine 13.2 mM) [nM]	apparent KD of K4 kissing-loop reporter ([1]; input ligand: none) [nM]	apparent KD of K4 kissing-loop reporter [1, 2] [nM]	apparent KD of K4 kissing-loop reporter [1, 3] [nM]	apparent KD of MS2 coat protein (MS2 coat protein; Eterna round: R95, input ligand: FMN 200 uM) [nM]	apparent KD of MS2 coat protein (MS2 coat protein; Eterna round: R95, input ligand: microRNA oligo, concentration not stated) [nM]	apparent KD of MS2 coat protein (MS2 coat protein; Eterna round: R95, input ligand: none) [nM]	apparent KD of MS2 coat protein (MS2 coat protein; input ligand: FMN 200 uM) [nM]	apparent KD of MS2 coat protein (MS2 coat protein; input ligand: microRNA oligo, concentration not stated) [nM]	apparent KD of MS2 coat protein (MS2 coat protein; input ligand: none) [nM]
UCUUUACCGGGAAGGAGCGUGAAUGAGAAUGGAUAUAGUGAUGUUAUGUAUACGAACGAAUCGCAGGUAGGUCGCCCGGAUCCCU [SSArgB.aB]	1150	316	643	685	485						
UUCAGUGAUGUUGAACACUGUUGUAUAAACUAGGAUAUGCUGAUAAGCAGAAGGAGUGAUGUUCCGUUCAACAUCAGAAUUAAAU [#08 K4 FMN A Exclusion]	662	415	488	496	269						
GGAUAGGACAGAGGAUAUCCAGUGAUGUUGGAGAAUUCUCCUUCAUCAUGUCACAAAAGUGGCAUGGGAGAAGGCUGUCCUAUCG [Mod of Eli's FmnBX 29 v3]	146	579	576	899	578						
CUAUGGGUGGACGAUACCAGCUAGUGAUGUUAGCGGGUCGAGCACGCGCAUCGCCGUGGUAGCCCUUGGCAGCGUACAGAUGUUU [theeternabot_exclusion_KL_Theo_B_5]	186	131	178	157	162						
GGAUGGUAGGCGGCCGCCACUAAAACUGAACACAUACAAACCAGUGAUGUUGGUAUGAUGAAGUAUAGGACCGGGCCUAGAUAGA [Exclusion - Tryptophan B (Freestyle 2)]	1040	731	972	672	827						
GUACCGCGUGCGGCCGCCACUACAUCAAUUACCUAAGCCUAGUGAUGUUGGGUUUUUGCUACAGGUAGGACCGGGCAGAUGUAUG [theeternabot_sameState_KL_Trp_B_38]	292	225	307	263	270						
CGCAAGCAGCCAGUGAUGUUGGCCGCCUUGCGAGGACCGGUACGGCCGCCACUCGAAGGCGGCUACUGGUAAACCGUCUAACGGA [Oronorenma]	94.9	71.7	66.4	62.8	90.1						
UGACAUUGCUCAGAUACCAGUCAUGAGGAUCACCCAUGGGCCAAAACGUACUAAAUAAAUGACCCUUGGCAGCUGAGCAAUGUCU [TheoBX 13]	116	36.9	37.7	165	72						
UCACUACACUGAAGGAGCGUGAGGAGACUAGUGAUGUUGGUCAGAUUCUAUGAUCGUAACUCACAGGUAGGUCGCAGUGUAGUGU [Arg B SS t7]	514	341	518	378	476						
CGUGAGGACCAGAGGUGAUGUAUAGUAUCGCGAGGACCGGUACGGCCGCCACUCGUGAAGAGAAAGGAGUGAUGUUCCGUAAUGG [Kazoo C10]	343	292	304	377	110						
UGUCAUUGGUCUGAUACCAGUUGAUAAACUGGAGUGAUGUUCCAAGACGAGAAACUCGACAACCCUUGGCAGCAGACCGAUGACU [TheoBS 16 #SwitchBubble 13 #StaticStem]	440	295	374	772	430						
AUGCGCGCGGCGGCCGCCACUCGCAUGAGAGUGAUGUUCUCGCCGUGCCCGUAAGGGCGCGGUGUGAGGACCGGGCCGGGCUGCG [#2 Same State - Tryptophan B Attempt #21 (HarryS)]	70.8	66.3	400	319	131						
UGGGUGUAGUGAUGUUAUAUAGAGAGUGAUACCAGUUUAGAGAAGAACCCUUGGCAGCAUAGAAGAGUAUCAUUGGAGGAGGAGG [ExTheophyl.Av]	361	413	336	268	289						
GGGAGGAACUGAGGAUAUUCGAAGAAAUAUAGUGAUGUUAUGUAAGGAGGAGGAGGGAGGGAGGAAGGAGAAGGCAGAAGAGGAG [ExFMNB.A]	428	415	500	294	433						
UGUAUGUGAUUUGAUACCAGACCAGCUGGUGGUAUAUGAGUGAUGUUCAUGUUGGUUUGGGUCCCUUGGCAGCAAAUCGCAUACU [KL-SSTheoB10]	271	183	217	213	212						
UAUAGAGUGACGGCCGCCACUAUUGUGAUUUAAUUGUUAGAGUGAUGUUUUGAUGUUUGAUUUUGUAGGACCGGGUUAUAUGUUA [wwwzmullin]	1090	720	890	795	718						
GAUUAUUAUUCUAAAUAACAUUAUUCAGAAGGAGCGUGUUUGUACACAGGUAGGUCGCUGAAUGCUAAGCCAGUGAUGUUGGUAA [JR_SSArginiA_Sub001]	154	206	203	191	128						
AUUAAUAACUGAGGAUAUCGUUUUACUGUAGUGAUGUUACAGAAAAUUCACAUUAUAAUUUCUAUUCGAGAAGGCAGAAUAAUUA [JR_ExcFMNB_Sub014]	106	74.6	65.2	71.9	65.1						
GGAGGAGAGGGAAGGAGCGUGAAAGAGAAAGAAUAUAGUGAUGUUAUAUAGAAGAAAGAAUCACAGGUAGGUCGCCCGGAGGAGG [SSArgB.A]	331	556	684	446	483						
AAUAUAGUGAUGUUAUAUAAGGAAAGAAGGCGAGGACCGGUACGGCCGCCACUCGAAAGGUGAGAAGGUGGCGAAGAAGAAAGAA [ExTryptoA.B]	312	280	331	433	377						

Sequence	apparent KD of K4 kissing-loop reporter ([1]; input ligand: FMN 200 uM) [nM]	apparent KD of K4 kissing-loop reporter ([1]; input ligand: arginine 13.2 mM) [nM]	apparent KD of K4 kissing-loop reporter ([1]; input ligand: none) [nM]	apparent KD of K4 kissing-loop reporter [1, 2] [nM]	apparent KD of K4 kissing-loop reporter [1, 3] [nM]	apparent KD of MS2 coat protein (MS2 coat protein; Eterna round: R95, input ligand: FMN 200 uM) [nM]	apparent KD of MS2 coat protein (MS2 coat protein; Eterna round: R95, input ligand: microRNA oligo, concentration not stated) [nM]	apparent KD of MS2 coat protein (MS2 coat protein; Eterna round: R95, input ligand: none) [nM]	apparent KD of MS2 coat protein (MS2 coat protein; input ligand: FMN 200 uM) [nM]	apparent KD of MS2 coat protein (MS2 coat protein; input ligand: microRNA oligo, concentration not stated) [nM]	apparent KD of MS2 coat protein (MS2 coat protein; input ligand: none) [nM]
UAUCAGAUUACUGAUACCAGUCUAAAGACAGUGAUGUUGUCUGAUCGACCACGAUCAAAGGACCCUUGGCAGCAGUAUACUAUUC [Theo B SS t5]	163	157	157	164	158						
UGACUGGAUGGAAGGAGCGCUAAACUCCUAGUGAUGUUAGGGAUACGAGACAAAGUCUUGAGGCAGGUAGGUCGCCAUCUAGUCU [FiskerMod 11 - Jieux - Same State - Arginine B]	162	130	147	157	138						
UGGUAUAGUGAUGUUAUACCACUACCAGAUACCAGUGUAACAUUACGCCCUUGGCAGCUGAUCAGGGAACAUAUGGAGACAUAUG [Theo A Mod astro A#6]	318	261	285	267	292						
ACCUACGAUCACAAAAGUGAUUGUAGGAUCUAGGAUAUGCUGAAGAGCAGAAGGAGAGUGAUGUUCUCAUCUCACGAAAGUGAGA [whbob_Ex_FMNA__2th189]	408	189	216	263	201						
UGCAUGUGAAACAUGUAGGUGCUAGGUGAAGGAGCGAUCGAAAGAUCAGGUAGGUCGCACCUUCCUGAGUGAUGUUCAGGUAAUA [KL-SSArg-A2]	60.3	31.7	47.7	55.2	46						
CCUAUCUCAUACGAUACCAGUCAAUGAGAUUUUAUCAAUGCCAUCACCGAGUGAUGUUCGGACCCUUGGCAGCGUAUGGGAUAGG [#02 K4 Theophylline B Exclusion]	236	185	217	298	221						
GGUAGCAUGGCGGCCGCCACUGAGCAAGUGAUGUUUGCCUCCCUACCCUAGUGUCGAGAGUAUAUCAGGACCGGGCCAUGCUACC	188	132	149	164	136						
GGCAGUGAUGUUGCCAGUGGCAGAUUGGAAGGAGCGUGGUGAGACACAGGUAGGUCGCUAAUUGAAAUUGCUGUCACUAAAAUGC [whbob_Ex_Arginine_A_2t130]	297	314	307	308	242						
AAGUAAUUAAUAAUUUAUAUAAGUUAAACAGAGGAUAUGCAUUAUUGCAGAAGGCUGAAUGCAGUGAUGUUGCAAUGAUUAUUUA [JR_SSFMNA_Sub001]	18.9	84.7	58.3	116	60.8						
AACUCUCAGGCACCCGAGUGAUGUUCGGGCCGAGGACCGGUACGGCCGCCACUCGGGCCUGAGAGAGGUUAUCAAAGAUAGCCAA [Omei KL Tryp A SS A v1]	247	68.5	114	62.7	248						
AGGACUCUUGUGGGUACGCAUCUAGCCGAUACCAGACUUCCAUAUGUCCCUUGGCAGCGGCAGUGAUGUUGUCGUUACGCCAUCA [theeternabot_exclusion_KL_Theo_A_34]	140	133	147	212	131						
UUCAGACUACUACUAGACAGUAGUAUAUACUAGGAUAUCCAGAUAUGGAGAAGGAGUGAUGUUCCCUAGUAGUAGUGAAUUAAAU [KL-XFMN-A5]	661	380	387	375	335						
UAACUGAAGUGAUGUUUCAGUUCGUCGGAUACCAGUGCCGAUCAUCACCCUUGGCAGCCGUAAUAUUACUUAACAAUGACAGGUU [theeternabot_exclusion_KL_Theo_A_7]	122	107	118	119	108						
CCCAGUGAUGUUGGUUAAUAUAUUGAUUAACGAGGACCGGUACGGCCGCCACUCGAUAUUUCUAUAAUUAAAAGUUUUGUUUAAA [JR_SSTryptoA_Sub001]	459	426	435	417	327						
GGGCCUAUUGAUGCUGGAGUAAUUCUGGAAGGAGCGCUCAAAGGAGCAGGUAGGUCGCCAGUAUACAAGGGCAGUGAUGUUGCCC [Entimalati]	143	162	161	146	142						
GUAGGAUGAGGAGGAGGAUGAAUUACUGAAGGAGCGCAUAUUAAUGCAGGUAGGUCGCGGUAAAGAAGUAUAGUGAUGUUAUAUA [SSArgA.H]	238	538	589	399	234						
ACAGGAAUCUUUGAUACCAGAACCCGUCUACCUCCAUCCUUGGAGCAUAGUGAUGUUGUGUUCCCUUGGCAGCAAUAGGGCACAU [theeternabot_exclusion_KL_Theo_B_34]	711	498	632	597	644						
AAAUCCGCUGAGGAUAUUAUCAGUGAGAGCUGAUGAGAAGGCGGUACAUGAGGAUCACCCAUGUCUAUGGGCAA [Ex-6 Malc#25] (puzzle: Exclusion 6)						358	208	295			
GCACGAAGUGUAGGAUAUCUGUGCGAUUAGCUCAGAGAAGGACACAUGAGGAUCACCCAUGUGUUCCAAUCACAAAAUACGUGC [Eli exng1 - 060] (Eterna round: R96, puzzle: Exclusion NG 1)									11.7	11	11.9
GCAAGCUUUAUCACUAUGAACAUGAGGAUCACCCAUGUAUAAGGUAUUACUUUUGGGCUCUUUAGUGCUCGUCUUAU [JR_STOV1_Sub033] (Eterna round: R97, puzzle: Sensor, turn-off variant 1)									26.2		26.7
